Source: the nanobody polyreactivity screen of Harvey et al. (2022)

Experiment: yeast display, Sf9 membrane polyspecificity reagent, FACS + sequencing; frameworks hold sequencing errors
How it was run: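 Synthetic nanobody libraries on Saccharomyces cerevisiae BJ5465 were galactose-induced for 36–48 hours, stained 1 hour at 4 °C with 10% biotinylated, detergent-solubilized Sf9 membrane reagent and enriched on streptavidin microbeads. FACS then separated cells into low and high (top ~1%) gates by anti-HA (expression) and streptavidin (reagent binding) fluorescence. Genes were colony-PCR amplified, MiSeq 2 × 250 sequenced and CDR-length filtered. A clone's polyreactivity label is that of its gate of origin.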

QVQLVESGGGLVQAGGSLRLSCAASGSTFGSNAMGWYRQAPGKERELVAAISWTGGSTYYADSVKGRFTISRDNAKYTVYLQMKSLKPEDTAVYYCNAYGYGYPLYRYDYWGQGTQVTVSS
polyreactivity (PSR sort gate): low polyreactivity

QVQLVESGGGLVQAGGSLRLSCAASGRTLQRNAMGWYRQAPGKERELVADISWSGASTYYADSVKGRFTISRDNAKNTVYLQMNSLKPEDTAVYYCAATYIDRGNIYDYWGQGTQVTVSS
polyreactivity (PSR sort gate): high polyreactivity

QVQLVESGGGLVQAGGSLRLSCAASGSIFTPYAMGWYRQAPGKERELVATISWSGGRTYYADSVKGRFTISRDNAKNTVYLQMNSLKPEDTAVYYCNADVLKYKFDYWGQGTQVTVSS
polyreactivity (PSR sort gate): high polyreactivity

QVQLEESGGGLVQAGGSLRLSCAASGGTFDEYAMGWSRQAPGKERELVATISWNSGSTYYADSVKGRFTISRDNAKNTVYLQMNSLKPEDTAVYYCATGRNVGVWSDDYWGQGTQVTVSS
polyreactivity (PSR sort gate): high polyreactivity

QVQLVESGGGLVQAGGSLRLSCAASGRTFYRYAMGWYRQAPGKERLVAAITWNGGSTYYADSVKGRFTISRDNAKNTVYLQMNSLNPEDTAVYYCAATFGGVSWRRPHRFDYWGQGTQVTVSS
polyreactivity (PSR sort gate): high polyreactivity

QVQLVESGGGLVQAGGSLRLSSAASARIFGYYVMGWYRQAPGKERELVARIRSGGNTYYADSVKGRFTISRDNAKNTVYLQMNSLKPEDTAVYSCNADPRTGWYIYDYWGQGTQVTVSS
polyreactivity (PSR sort gate): high polyreactivity

QVQLVESGGGLVQAGGSLRLSCAASGRTFGWTVMGWYRPAPGKDRELVAAISGSGGSTYYADSVKGRFTISRDNAKNTVYLQMNSLKPEDTAVYYCAALYGPAREYDYWGQGTQVTVSS
polyreactivity (PSR sort gate): low polyreactivity

QVQLVESGAGLVQAGGSLRLSCAACGSTFRGNAMGWYRQAPGKEREFVASISRRGGRTNYADSVKGRFTISRDNAKNTVYLQMNSLKPEDTAVYYCAATTVPLGDYWGQGTQVTVSS
polyreactivity (PSR sort gate): high polyreactivity

QVQLVESGGGLVQAGGSLRLSCAASGNTFGYYAMGWYRQAPGKERELVAAITWNGDRTYYADSVKGRFTISRDNAKNTVYLQMNSLKPEDTAVYYCNKVNPYRHGYWGQGTQVTVSS
polyreactivity (PSR sort gate): high polyreactivity

QVQLVESGGGLVQAGGSLRLSCAASGVIFYRNAMGWYRQAPGKERELVATIRYSGGSTYYADSVKGRFTISRDNAKNTVYLEMNSLKPEDSAVYYCNARRWYLPRRSGYGYWGQGTVVTVSS
polyreactivity (PSR sort gate): high polyreactivity

QVQLVESGGGLVQAGGSLRLSCAASGRTFYYNAMGWYRQAPGKERELVAAISWSGGSTYYADSVKGRFTISRDNAKNTVYLQMNSLKPEDTAVYYCAAGAYSYRKYRSYDYWGQGTQVTVSS
polyreactivity (PSR sort gate): high polyreactivity

QVQLVEYGGGLVQAGGSLRLSCAASGIIFKVYAMGWYRQAPGKEMELVAAISWSGGTTYYADSVKWRFTISRDNAKNTVYLQMNSLKPEDTAVYYCNAVVRVRFRKNDYWGQGTQVTVSS
polyreactivity (PSR sort gate): high polyreactivity

QVQLVESGGGLVQAGGSLRLSCAASGGIFTPYAMGWYIQAPGKEREFVAGIRWSGVSTSYADSVKGRFTISRDNAKNTVYFQMNSLKPEDTAVSYCAATTHRWWVTFDYWGQGTQVTVSS
polyreactivity (PSR sort gate): low polyreactivity

QVQLVESGGGLVQAGGRLRLSCAASGRIFRWNPMGWYRPAPGIERELVAAISASGGRTNYADSVKGRFTISRDNAKNTVYLQMKSLKPEDTAVYYCAAGPVYYYVPIGYDYWGQGTQVTVSS
polyreactivity (PSR sort gate): high polyreactivity

QVQLVESGGGLVQAGGSLRLSCAASGRTFTYNVLGWYRVAPGKERELVAAITSGGSNYADSVKGRFTISRDNAKNTVYLQLNSLKPEDTAGYYCATDYYDDVTIGYDYWGPGTQVTVSS
polyreactivity (PSR sort gate): low polyreactivity

QVQLVESGGGLVQAGGSLRLSCAASGRIFGVYAMGWYRQAPGKERELVAAIDSSDASTYYADSVKGRFTISRDNAKNTVYLQMNSLKPEDTAVYYCAADNPAAVYGYDYWGQGTQVTVSS
polyreactivity (PSR sort gate): low polyreactivity

QVQLVESVGGLVQAGGSLRLSCAASGGTFFYNSMGWYRQAPGKEREFVAAINGGTSTNYADSVKGRFTISRDNAKNTVYLQMNSLKPEDTAVYYCAAVYRRLGRFDWYDYWGQGTQVTVSS
polyreactivity (PSR sort gate): low polyreactivity

QVQLVESGGGLVQAGGSLRLSCAASGRIFLFYAMGWYRQAPGKERELVAAISSTDDTYYADSVKGRFTISRDNAKNTVYLQMNSLKPEDTAVYYSAAYSIISQSEMYYRGQGTQVTVSS
polyreactivity (PSR sort gate): low polyreactivity

QVQLVDSGGGLVQAGGSLRLSCAPSGFTIYKYVMGWDRQAPGKDREVVAAITTCGGSTYYADSVKGRFTISRDYAKNTVYLQMNSLKPEHTAVDYCNARSLHTSEGDYWGQGTQVTVSS
polyreactivity (PSR sort gate): low polyreactivity

QVQLVESGGGLVQAGGSLRLICAASGRIFYDNALGWYRQAPGKERELVAAISESGTSTYYADSVKGRFTISRDNAKNTVYLQMNSLKPEDTAVYYCAAYFTWNRKVFYYWGQGTQVTVSS
polyreactivity (PSR sort gate): high polyreactivity

QVQLVESGGGLVQAGGSLRLSCAASGSIFLRYAMGWYRQAPGKERELVATISKSGGSTYYADSVKGRFTISRDNAKNTVYLQMNSLKPEDTAVYYCAAGYVYFQTYYYWGQGTQVTVSS
polyreactivity (PSR sort gate): high polyreactivity

QVQLVESGGGLVQAGGSLRLSCAASGRIFLYNAMGWYRQAPGKERELVAAITASGGTTYYADSVKGRFTISRDNAKNTVYLQMNSLKPEDNAVYYCNAYSYSGERYYWGQGTQVTVSS
polyreactivity (PSR sort gate): high polyreactivity

QVQLVESGRGLDQAGGSHRISCAGSARIFTIYAMGCYRQAPGKERELVAAISKSGGRTYYADSVKGRFTISRDNAKNTVYVQMNSLKPEDTAVYYCAARWRSWRYKYDYWGQGTQVTVSS
polyreactivity (PSR sort gate): high polyreactivity

QVQLVESGGGLDQAGGSLRLSCAASGRTFGRNAMGWYRQAPGKESELVAASSTRGGSTFYADSVKARFTISRDNAKNTVYLQMNSLKPEDTAVYYCAAAGTARWPRPTSGLLDYYYWGQVTQVTVSS
polyreactivity (PSR sort gate): high polyreactivity

QVQLVESGGGLVQAGGSLRLSCAASGFTFVSYAMGWYRQAPGKERELVASITWTGGSTYYADSVKGRFTISRDNAKNTVYLQMNSLKPEDTAVYYDYWGQGTQVTVSS
polyreactivity (PSR sort gate): low polyreactivity

QVQLVESGAGLVQAGGSLRLSCAASGRIFDIYAMGWYRQAPGKERELVAAITRRGGTTYADSVKGRFTISRDNAKNTVYLQMNSLKPEDTAVYYCARYHWYYRVSKSDSWGQGTQVTVSS
polyreactivity (PSR sort gate): high polyreactivity

QVQLVESAGGLVQAGGSLSLSCAASGGTFSTNAMGWYRQAPGQERELVAAISLSGGRTYADSVKGRFTISLDNAKNTVYLQMNSLKPEDTAVYYCNADSAGITRARSELDYWGQGTQVTVSS
polyreactivity (PSR sort gate): low polyreactivity

QVQLVESGGGLVQAGGRLRLICAASARTLDRNAIGWYRQAPGEEREFVAAISSSGDSTYADSVKGRFTISRDNAKNTVYLQMNSLKPEDTAVYYCNAEEKVTYSASYFWVYDAMDHWGQGTQVTVSS
polyreactivity (PSR sort gate): low polyreactivity

QVQLVESGGGLVQAGGSLRLSCAASGFTFRYYAMGWYRQEPGKERELVARISSGGSTNYADSVKGRFTISRDNAKNTVYLQMNSLKPEDTSVKYCAARLDHWLIYAYDYWGQGTQVTVSS
polyreactivity (PSR sort gate): high polyreactivity

QVQLVESGGGLVQAGGSLRLSCAASGSIFNYYVMGWYRQAPGKERELVAGIRWNGGSTYYADSVKGRFTISRDNAKNTVYLQMNSLKPEDTAVYYCAAQAWWGYYSRGPMDYWGQGTQVTVSS
polyreactivity (PSR sort gate): low polyreactivity

QVQLVESGGGLVQAGGSLRISCAASGRIFGGYAMGWYRQAPGKERELVAAITSGARTKYADSVKGRFTISRDNAKNTVYLQMNSLKPEDTAVYYCAADGFYDGDYWGQGTQVTVSS
polyreactivity (PSR sort gate): high polyreactivity

QVQLVESGGGLVQAGGSLRLSCAASGFIFAFYAMGWYRQAPGKERELVAAISLSGGSTYYADSVKGRFTISRDNAKITVYLQMNSLKPDDTAVYYCAASRYKFYYWGQGTQVTVSS
polyreactivity (PSR sort gate): high polyreactivity

QVQLLESGGGLVHAGGSLRLSCAASGRIFLGNAMGWYIQAPRKERELVASISRGGGTTYYADSVKGRITISRDNAKNTVYLQMNRLKPEDTAVYYCAARVYYVVQHGKYVYWGQGTQVTVSS
polyreactivity (PSR sort gate): high polyreactivity

QVQLVESGGGLVQAGGSLRLSCAASGRTFWAYAMVWYRQAPGKERELVADITNGGSTYYADSVKGRFTISRDNAKNTVYLQMNSLKPEDTAVYYCNALTHWAPASYEYDYWGQGTQVTVSS
polyreactivity (PSR sort gate): low polyreactivity

QVQLLDSGGGLVQAGCSLRLSCAASGLIFHRNAMGWYRQAPGKERELVAIISSGGGTTYYADSVKGRFTISRDNAKNTVYLQKNSLKPEDTAVYYCNARPRAYGSRGFDYWGQGTQVTVSS
polyreactivity (PSR sort gate): high polyreactivity

QVQLVESGGGLVQAGGSLRLSCAASGLTFGDYTMGWYRQAPGKERELVAAISTSGGSTYYADSVKGRFTISRDNAKNTVYLQMNSLKPEDTAVYYCNARRTHTRSHYYYWGQGTQVTVSS
polyreactivity (PSR sort gate): high polyreactivity

QVQLVESGGCLVQAGCSLRLSCAASGRTFRTYVMGWYRQAPGKEREFVAGITWSSGSTRYADSVKGRFTISRDNAKNTVYLQMNSLKPEDTAVYYCNATPFYLLYSHTYIQYEGDYWGQGTQVTVSS
polyreactivity (PSR sort gate): high polyreactivity

QVQLVESGGGLVQAGGSLRLSCAASGSTFRYNAMGWYRQAPGKERELVAGISYRGGTTYYADSVKGRFTISRDNAKNTVYLQMNSLKPEDTAVYYCAADSRAKRYYWGQGTQVTVSS
polyreactivity (PSR sort gate): high polyreactivity

KLQLVESGGGLDQAGGSLRLSCAASGSIFVAYAMGSYRQAPGKERELVAAISKSGGSKYYADSVKGRFTISRDNAKNTVFLQMNSLKPEDTAVYYCAAGSDDFSRFGYWGQGTQVTVSS
polyreactivity (PSR sort gate): low polyreactivity

QDQLVESGGGLVQAGGSLRLICAASGSIFTSNAMGWYRQAAGKERELVAAITSSGGSTYYADSVKGRFTISRDNAKNTVYLHMNSLKPEYTAVYYCAAAKFDLSFWLYYWGQGTQVTVSS
polyreactivity (PSR sort gate): low polyreactivity

QVQLEESGGGLVQAGGSLRLSCAAYGIIFRTYDMGWYRQAPGKEREFVAAINSDCSTYYADSVKGRFTFSRDNAKNSVYLQMISVKTEDTAVYYCASDHYYAGAWYYFWGQGTQVTVSS
polyreactivity (PSR sort gate): high polyreactivity

QVQLGESGGGIVQAGGSLRLSCAASGRTFPYNVMGWYRQAPGKERELVAGITGSGDSTFYADSVKGRFTISRDHAKNTVYLQMNSLKPEDTAVYYCAARYRTLNDGYIRNYWGQGTQVTVSS
polyreactivity (PSR sort gate): low polyreactivity

QVQLVESGGGLVQAGGSLRLSCAASGSIFTHYAMGWYRPAPGKERELVATISNGDGSTYYADSVKGRFTISRDNAKNTVYLQMNSLKPEDTAVYYCNVDDFSQYADDSWGYEYWGQGTQVTVSS
polyreactivity (PSR sort gate): low polyreactivity
